The record followed here is patent publication US20200317758A1 (published 2020).

Test [1] addresses T1, recombinant derivative of the LukE protein (SEQ ID NO: 826) with amino-terminal poly-histidine affinity tag (UniProt Q2FXB0 24-306).
T1 chain: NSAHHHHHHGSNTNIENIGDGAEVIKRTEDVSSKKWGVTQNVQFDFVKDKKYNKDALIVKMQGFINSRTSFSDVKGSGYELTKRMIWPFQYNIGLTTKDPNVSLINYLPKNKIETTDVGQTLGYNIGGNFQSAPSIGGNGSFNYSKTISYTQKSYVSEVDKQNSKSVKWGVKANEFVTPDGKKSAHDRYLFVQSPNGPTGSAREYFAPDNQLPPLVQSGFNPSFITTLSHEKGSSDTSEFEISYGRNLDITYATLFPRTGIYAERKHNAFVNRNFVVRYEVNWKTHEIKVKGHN
In words: BLI; Step E (after SM1B332), left panel. On the technique in general: BLI is a label-free optical method that tracks binding on a fibre tip over time.

Test [2] has as its target T1, recombinant derivative of the LukE …. In words: BLI; Step C (first mAb), left panel.
Test [3] has the same target. In words: BLI; Step C (first mAb), right panel.
Test [4] shares this target. In words: BLI; Step E (after SM1B332), right panel.
Test [5] deals with T2, recombinant toxoid variant of the LukAB protein (LukA E323A) with poly-histidine and streptavidin binding … (UniProt Q2FFA2 31-351; P21224 30-338).
T2 chain 1: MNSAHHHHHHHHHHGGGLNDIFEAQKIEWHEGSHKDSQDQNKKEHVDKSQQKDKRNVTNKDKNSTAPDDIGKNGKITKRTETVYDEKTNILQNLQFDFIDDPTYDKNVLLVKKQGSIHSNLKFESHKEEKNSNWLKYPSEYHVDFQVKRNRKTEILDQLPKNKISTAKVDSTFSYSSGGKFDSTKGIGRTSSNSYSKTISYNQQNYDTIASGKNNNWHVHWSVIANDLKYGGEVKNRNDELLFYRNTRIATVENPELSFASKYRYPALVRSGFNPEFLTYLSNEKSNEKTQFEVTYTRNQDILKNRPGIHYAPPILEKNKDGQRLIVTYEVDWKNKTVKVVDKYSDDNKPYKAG
T2 chain 2: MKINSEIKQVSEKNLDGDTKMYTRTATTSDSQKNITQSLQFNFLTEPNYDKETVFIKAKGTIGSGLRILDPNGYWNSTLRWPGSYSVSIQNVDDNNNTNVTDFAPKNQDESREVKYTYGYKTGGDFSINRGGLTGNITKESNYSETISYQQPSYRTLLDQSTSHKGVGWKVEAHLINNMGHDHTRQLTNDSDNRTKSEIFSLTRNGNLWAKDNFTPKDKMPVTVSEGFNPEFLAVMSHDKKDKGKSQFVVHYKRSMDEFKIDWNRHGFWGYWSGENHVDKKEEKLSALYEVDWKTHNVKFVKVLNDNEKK
In words: BLI; Step E (after SM1B245).

In test [6] the target is T3, recombinant derivative of the LukD protein (SEQ ID NO: 824) with amino-terminal polyhistidine affinity tag, … (UniProt Q2FXB1 27-327, chemically biotinylated in vitro (sites not given)).
T3 chain: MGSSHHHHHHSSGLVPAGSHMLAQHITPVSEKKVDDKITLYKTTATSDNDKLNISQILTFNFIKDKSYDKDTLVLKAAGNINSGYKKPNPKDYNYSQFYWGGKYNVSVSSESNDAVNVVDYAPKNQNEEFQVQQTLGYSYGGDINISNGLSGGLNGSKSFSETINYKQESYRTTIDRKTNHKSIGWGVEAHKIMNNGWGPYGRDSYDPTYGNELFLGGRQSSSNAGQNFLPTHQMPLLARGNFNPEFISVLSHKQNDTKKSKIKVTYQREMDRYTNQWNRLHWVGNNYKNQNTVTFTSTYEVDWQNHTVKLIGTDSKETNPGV
In words: BLI; Step E (after SM1B221).

The target of test [7] is T2, recombinant toxoid variant of the LukAB …. In words: BLI; Step C (first mAb).
For test [8] the target is unchanged. In words: BLI; Step E (after SM1B249).

B1: anti-LukE mAb SM1B318 (antibody, V domains shown)
VH: QVQLQQSGAELMNPGASVKISCKSTGYKFSSYWIEWVKQRPGHGLEWMGEILPGSGSTNHNEKFKGKAIFTADASSNTAYMELSSLTSEDSAVYYCARTISTATDWFAYWGQGTLVTVSA
VL: DVLMTQTPLSLPVSLGDQASISCRSSQTIVYSDGNTYLEWYLQKPGQSPKLLIYKVSNRFSGVPDRVSGSGSGTDFTLKISRVEAEDLGVYYCFQGSHVPYTFGGGTKLEIKR
B1: the Kd – broadly, the concentration at which binding is half-saturated – in test [1] was determined as 5.04 nM.

B2: anti-LukE mAb SM1B332 (antibody, V domains shown)
VH: QVQLKESGPGLVAPSQSLSITCTVSGLSLTSYGLSWVRQPPGKGLEWLGVIWGDGSTNYHSALISRLSISKDNSKSQVFLKLNSLQSDDTATYYCATRGDYGSYAMDYWGQGTSVTVSS
VL: QIVLTQSPAIMSASPGEKVTLTCSASSSVSSSYLFWYQQKPGSSPKLWIYSTSNLASGVPVRFSGSGFGTSYSLTISRMEAEDAASYFCHQWSSYPPTFGAGTKLELKR
Turning to B2, the equilibrium dissociation constant (Kd) in test [2] stood at 1.38 nM; in test [3], 1.47 nM; in test [1], 4.9 nM; in test [4], 4.9 nM.

B3: anti-LukAB mAb SM1B111 (antibody, V domains shown)
VH: EVQLQQSGAELVKPGASVKISCKASGYAFSSSWMNWLKQRPGKGLEWIGRIYPGDGDTNYNGKFKGKATLTADKSSSTAYMQLSSLTSEDSAVYFCARYGYDYDGEYYYAMDYWGQGTSVTVSS
VL: DIVMTQSPTTMAASPGERITITCSAHSNLISNYLHWYQQKPGFSPKLLIYRTSNLASGVPARFSGSGSGTSYSLTIGTMEAEDVATYFCQQGSSIPFTFGSGTKLEIKR
As to B3, the dissociation constant (Kd) in test [5] is 4.53 nM.

B4: antibody SM1B225 (antibody, V domains shown)
VH: EVQLQQSGGGLVKPGGSLKLSCAASGFTFSSYAMSWVRQTPEKRLEWVATITGGGTYTYYLDSVKGRFTISRDNAKTSLYLQMSSLRSEDTAMYYCARHRDGNYGCFDVWGAGTTVTVSS
VL: DIVLTQSPAIMSASLGERVTMTCTASSSVSSSYLHWYQQKPGSSPKLWVYSTSNLASGVPARFSGSGSGSSYSLTISSMEPEDTATYYCHQYHRSPQTFGGGTKLEIKR
For the molecule B4, the Kd in test [6] is 4.67 nM.

B5: anti-LukAB mAb SM1B245 (antibody, V domains shown)
VH: QVQLQQSGAELAKPGASVKMSCKSSGYTFSTYWMHWVKQRPGQGLEWIGYINPNTGYTEYNQKFKDTATLTADKSSSTAYMQLSSLTSEDSAVYYCARGGSKAFPYYAMDYWGQGTSVTVSS
VL: DIVLTQSPASLAVSLGQRATMSCRASESVDGYGNSFLHWYQQKPGQPPKLLIYRASNLESGIPARFSGTGSRTDFTLTITPVEADDVATYYCQQSNGDPFTFGSGTKLEIKR
As to B5, the Kd in test [7] is 0.656 nM; in test [8], 1.31 nM; in test [5], 11.5 nM.

B6: anti-LukE mAb SM1B507 (antibody)
heavy: EVQLQQSGAELVKPGASVKMSCKASGYTFTDYYMDWVKQSHGKSFEWIGHVNPYNGDTRYNQKFKGKATLTVDKSSTTAYMELNSLTSEDSAVYYCARGNFFDYWGQGTTLSVSSAKTTPPSVYPLAPGSAAQTNSMVTLGCLVKGYFPEPVTVTWNSGSLSSGVHTFPAVLESDLYTLSSSVTVPSSPRPSETVTCNVAHPASSTKVDKKIVPRDCGCKPCICTVPEVSSVFIFPPKPKDVLTITLTPKVTCVVVDISKDDPEVQFSWFVDDVEVHTAQTQPREEQFNSTFRSVSELPIMHQDWLNGKEFKCRVNSAAFPAPIEKTISKTKGRPKAPQVYTIPPPKEQMAKDKVSLTCMITDFFPEDITVEWQWNGQPAENYKNTQPIMNTNGSYFVYSKLNVQKSNWEAGNTFTCSVLHEGLHNHHTEKSLSHSPGK
light: DIVMTQSPAIMSASPGEKVTIPCSASSSVSYMHWFQQKPGTSPKLWIYSTSNLASGVPGRFSGSGSGTSYSLTISRMEAEDAATYYCQQRSNYPLTFGAGTKLELKRADAAPTVSIFPPSSEQLTSGGASVVCFLNNFYPKDINVKWKIDGSERQNGVLNSWTDQDSKDSTYSMSSTLTLTKDEYERHNSYTCEATHKTSTSPIVKSFNRNEC
For B6, the Kd in test [4] came out at 3.52 nM.
